US10308606B2, “PSMA-targeted NIR dyes and their uses” (On Target Laboratories, LLC, priority 2016, dated 2019)
pKd: −log10 of the molar value.

Assays:
[1] = tested on: 22Rv1 human prostate tumor xenograft; assay: Time dependent whole body imaging; format: in vivo, mouse; settings: 10 nmol, FIG. 6
Experimental: FIGS. 6A-6F: Overlay of whole body or half body fluorescence image over white light images after adjusting the threshold. 22Rv1 human prostate tumor xenograft bearing mouse was injected with 10 nmol of 1: OTL78 and imaged with IVIS imager (ex=745 nm, em=ICG, exposure time=1 s) at different time intervals.
Settings for imaging:—lamp level: medium; excitation: 745 nm; emission: ICG(830 nm); epi illumination; binning: 4 (M), FOV=12.5; f-stop=2; acquisition time=1 s. For time dependent studies, animals were imaged under anesthesia using isoflurane. Whole body imaging (intact tumor) experiments was then performed using a Caliper IVIS Lumina II Imaging Station with Living Image 4.0 software (PerkinElmer Inc, MA).

[2] = biological target: T1, PSMA (Homo sapiens, UniProt Q04609); assay: In vitro binding: relative binding affinity versus DUPA-FITC on PSMA-positive 22Rv1 cells; settings: 1 h at 37° C., 100 nM DUPA-FITC, FIG. 2, read-out: dissociation constant (KD)
T1 construct: PSMA-positive 22Rv1 human prostate cancer cells; endogenous in cells; host or cells: 22Rv1 human prostate cancer cells
Experimental: FIG. 2 illustrates the relative binding affinity of 1: OTL78 with respect to DUPA-FITC (14). PSMA-positive 22Rv1 human prostate cancer cells were incubated for 1 h at 37° C. in the presence of 100 nM DUPA-FITC with increasing concentrations of 1. Media was then removed, washed with fresh media three times, and replaced with PBS. Cell bound fluorescence was assayed as using flow cytometry.
General Methods: 22Rv1 cells (a human prostate cancer cells) were grown as a monolayer using RPMI medium (Gibco, NY) 10% heat-inactivated fetal bovine serum (Atlanta Biological, GA) and 1% penicillin streptomycin (Gibco, NY) in a 5% carbon dioxide: 95% air-humidified atmosphere at 37° C. for at least six passages before they were used for the assays.
In vitro binding and specificity: 22Rv1 cells were seeded into a T75 flask and allowed to form a monolayer over 24 h. After trypsin digestion, release cells were transferred into centrifuge tubes (1×10^6 cells/tube) and centrifuged. […] After rinsing with fresh medium (2×1.0 mL) and PBS (1×1.0 mL), cells were resuspended in PBS (1.0 mL) and cell bound fluorescence was analyzed (100,000 cells/sample) using a fluorometer (Cary, Agilent). The relative binding affinities were calculated using a plot of % cell bound fluorescence versus the log concentration of the test article using GraphPad Prism 4.

T1 sequence (Q04609 whole entry): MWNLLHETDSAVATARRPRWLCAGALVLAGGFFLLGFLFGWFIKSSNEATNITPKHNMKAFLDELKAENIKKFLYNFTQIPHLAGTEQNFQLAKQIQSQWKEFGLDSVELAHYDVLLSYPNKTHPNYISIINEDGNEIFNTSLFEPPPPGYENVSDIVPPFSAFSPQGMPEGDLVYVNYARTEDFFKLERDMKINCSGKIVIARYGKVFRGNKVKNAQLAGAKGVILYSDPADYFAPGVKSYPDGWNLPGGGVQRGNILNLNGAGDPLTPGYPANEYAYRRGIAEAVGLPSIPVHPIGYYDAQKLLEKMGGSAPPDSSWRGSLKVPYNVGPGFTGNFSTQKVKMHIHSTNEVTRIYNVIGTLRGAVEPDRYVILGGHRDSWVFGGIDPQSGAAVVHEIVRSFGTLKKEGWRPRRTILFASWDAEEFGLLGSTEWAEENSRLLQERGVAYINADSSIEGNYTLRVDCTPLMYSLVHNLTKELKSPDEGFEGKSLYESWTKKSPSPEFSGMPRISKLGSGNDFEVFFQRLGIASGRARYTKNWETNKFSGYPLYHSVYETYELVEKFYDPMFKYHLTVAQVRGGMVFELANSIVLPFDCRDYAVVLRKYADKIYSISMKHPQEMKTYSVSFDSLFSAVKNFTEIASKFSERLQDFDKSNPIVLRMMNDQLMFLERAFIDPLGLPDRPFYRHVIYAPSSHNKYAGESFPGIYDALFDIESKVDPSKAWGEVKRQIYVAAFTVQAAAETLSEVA

## CC1(C)C(/C=C/C2=C(Oc3ccc(C[C@H](NC(=O)[C@H](Cc4ccccc4)NC(=O)CCOCCOCCNC(=O)CC[C@H](NC(=O)N[C@@H](CCC(=O)O)C(=O)O)C(=O)O)C(=O)O)cc3)C(=C/C=C3/N(CCCCS(=O)(=O)O)c4ccc(S(=O)(=O)O)cc4C3(C)C)/CCC2)=[N+](CCCCS(=O)(=O)[O-])c2ccc(S(=O)(=O)O)cc21 [1: OTL78, DUPA_PEG2_Phe_Tyr-50456]
[1]
  time remained in the tumor: over 24 h
  time to saturation in PSMA-positive tumors: ≤ 2 h

## DUPA_PEG2—Phe_Tyr-S0456 [compound 5]
[2]
  pKd: 9.00
